Experimental data from paper PMC9755681, “Next-generation sequencing of a combinatorial peptide phage library screened against ubiquitin identifies peptide aptamers that can inhibit the in vitro ubiquitin transfer cascade” (Frontiers in Microbiology, 2022).
No end group written: not given here. *: point of attachment. Biotin = O=C1N[C@H]2[C@H](CS[C@H]2CCCCC(=O)*)N1

B1: peptide-12 (Biotin-SGSG-AKFDMHIATRLS-amide) (peptide)
peptide: Biotin-SGSGAKFDMHIATRLS-NH2
SMILES: CC[C@H](C)[C@H](NC(=O)[C@H](Cc1c[nH]cn1)NC(=O)[C@H](CCSC)NC(=O)[C@H](CC(=O)O)NC(=O)[C@H](Cc1ccccc1)NC(=O)[C@H](CCCCN)NC(=O)[C@H](C)NC(=O)CNC(=O)[C@H](CO)NC(=O)CNC(=O)[C@H](CO)NC(=O)CCCC[C@@H]1SC[C@@H]2NC(=O)N[C@@H]21)C(=O)N[C@@H](C)C(=O)N[C@H](C(=O)N[C@@H](CCCNC(=N)N)C(=O)N[C@@H](CC(C)C)C(=O)N[C@@H](CO)C(N)=O)[C@@H](C)O
notes: spacer; phage-selected 12-mer; also called synthetic peptide 12; source: synthetic peptide (Chiron Mimotopes, Australia)
B2: peptide-37 (Biotin-SGSG-FIPAQLHFHWRS-amide) (peptide)
peptide: Biotin-SGSGFIPAQLHFHWRS-NH2
SMILES: CC[C@H](C)[C@H](NC(=O)[C@H](Cc1ccccc1)NC(=O)CNC(=O)[C@H](CO)NC(=O)CNC(=O)[C@H](CO)NC(=O)CCCC[C@@H]1SC[C@@H]2NC(=O)N[C@@H]21)C(=O)N1CCC[C@H]1C(=O)N[C@@H](C)C(=O)N[C@@H](CCC(N)=O)C(=O)N[C@@H](CC(C)C)C(=O)N[C@@H](Cc1c[nH]cn1)C(=O)N[C@@H](Cc1ccccc1)C(=O)N[C@@H](Cc1c[nH]cn1)C(=O)N[C@@H](Cc1c[nH]c2ccccc12)C(=O)N[C@@H](CCCNC(=N)N)C(=O)N[C@@H](CO)C(N)=O
notes: spacer; phage-selected 12-mer; also called synthetic peptide 37; source: synthetic peptide (Chiron Mimotopes, Australia)
B3: Non-tagged peptide-12 (AKFDMHIATRLS), non-biotinylated with a C-terminal NH2 (peptide)
peptide: AKFDMHIATRLS-NH2
notes: phage-selected 12-mer; source: synthetic peptide
B4: Non-tagged Peptide-37 (FIPAQLHFHWRS), non-biotinylated with a C-terminal NH2 (peptide)
peptide: FIPAQLHFHWRS-NH2
notes: as for B3

Columns and labels:
[1] = target: T1, Ubiquitin (ubiquitination reactions, HDX-MS and reverse-phase HPLC) (human, UniProt P0CG48 1-76); assay: HDX-MS; global deuteration of intact ubiquitin, 2 uM, ubiquitin to peptide 1:2 and 1:5, room temperature, 1 min in deuterated water with 0.1% DMSO; conditions: both partners purified
T1 construct: ubiquitin, human; the 76-residue ubiquitin unit cut from its precursor; That the HDX/HPLC ubiquitin is the Boston Biochem one is surmised; also called ubiquitin protein; native ubiquitin; source: bought: Boston Biochem (ubiquitination reactions)

[2] = target: T2, uniformly labeled 15N-human ubiquitin (human, UniProt P0CG48 1-76, uniformly 15N-labeled); assay: NMR titration; 1H-15N HSQC and 15N relaxation of 0.5 mM 15N-ubiquitin, 10 mM sodium phosphate pH 5.0, 298 K, without and with peptide (0.64 mg peptide 12 or 0.7 mg peptide 37 in 0.55 ml); conditions: both partners purified
T2 construct: ubiquitin, human; the 76-residue ubiquitin unit cut from its precursor; also called N15-labeled Ubiquitin; source: bought: Asla Biotech (Latvia)

| Binder | binding result [1] | binding result [2] |
| --- | --- | --- |
| B1 | binds |  |
| B2 | binds |  |
| B3 |  | binds |
| B4 |  | binds |
